Measured values: the nanobody polyreactivity screen of Harvey et al. (2022)

Test: yeast display, Sf9 membrane polyspecificity reagent, FACS + sequencing; frameworks hold sequencing errors
Method in brief: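 After 36–48 hours of galactose induction, yeast (Saccharomyces cerevisiae BJ5465) displaying a synthetic nanobody library were stained at 4 °C for 1 hour with 10% biotinylated, detergent-solubilized Sf9 membrane reagent. Streptavidin microbeads enriched the stained cells before FACS sorting into low and high (top ~1%) gates on anti-HA and streptavidin fluorescence. Each clone's polyreactivity label reflects its gate of origin.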
With “QVQLVESGVGLVQAGGSLRLSCAASGRTFWSYAMGLYRQAPGKERELVAAISRGGSRTYYADSVKGRFTISRDNAKNTVYLQMNSLKPEDTAVYYCAADPTASGHFLGQVDYWGQGTQVTVSS” the “polyreactivity (PSR sort gate)” value was “high polyreactivity”.
In the case of “QVQLVESGVGLVQAGGSLRLSCAASGSIFDPYAMGWYRQPPGKERELVAAIPYSVGGTTYYADSVKGRFTISRDTAKNTVYLQMNSLKPEHTAVNYCAAEWWGNPFDYWGQGTQVTVST”, the “polyreactivity (PSR sort gate)” value is reported as “high polyreactivity”.
In the case of “QVQLVESGVGLVQAGGSLRLSCAASGSIFGLYAMGCYRQAPGKERELVAAISTSDTSTYYADSVKGRFTISRDNAKNTVYLQMTSLKQEDTAVYYCAADTYDNFDYSGQGTQVTVSS”, the “polyreactivity (PSR sort gate)” value is reported as “low polyreactivity”.
With “QVQLVESGVGLVQAGGSLRLSCAASGSPFRRNALGWYRQAPGKERELVAAITWRGTSTYYADSVKGRFTISRDNAKNTVYLQMNSLIPEDTAVYYFATSKSRLRYDYWGQGTQVTVSS” the “polyreactivity (PSR sort gate)” value was “high polyreactivity”.
In the case of “QVQLVESGVGLVQAGGSLRLSCAASGSTFRYNAMVWYRQAPGKERELVAAITGSGDRTFYADSVKGRFTISRDNAKNTVYLQMNSLKPVDTAVYYCAARSRYPFSYGYYYWGQGTQVSVSS”, the “polyreactivity (PSR sort gate)” value is reported as “high polyreactivity”.
With “QVQLVESGVGLVQAGGSLRLSCAASGSTFTYYAMGWYRQAPGKESELVAAITASGTSTYYPDSVKGRFTISRDYAKNTVYLQMNSLKPEDTAVYYCAATRFKWTRIYPYYTGQGYNYWGQGTQVTVSS” the “polyreactivity (PSR sort gate)” value was “high polyreactivity”.
In the case of “QVQLVESGVGLVQAGGSLRLSCAASGSTFWAYAMGWYRQAPGKERELVAAITTGGGRTFYADSVKGRFTISRDNAKNTVYLQMNSLKPEETAVYYFAAVSQSYRMYYWGQGTQVTVSS”, the “polyreactivity (PSR sort gate)” value is reported as “low polyreactivity”.
In the case of “QVQLVESGVGLVQAGGSLRLSCAASGSTFWLYAMGWYRQAPGKERELVASISSRGGSTYYADSVKGRFTISRDNAKNTVYLQMNSLKPEDTAVYYCAAKDIRYDDDYWGQGTQVTVSS”, the “polyreactivity (PSR sort gate)” value is reported as “low polyreactivity”.
For “QVQLVESGVGLVQAGGSLRLSCAASGSTFYQYAIGWYRQAPVKERELVAAISKSGGSTYYADSVKGRFTISRDNAKNTVYLQMNSLKPEDTAVYYCATRWIKGRKMDYWGHGTQVTVSS”, the “polyreactivity (PSR sort gate)” value was “high polyreactivity”.
For “QVQLVESGVGLVQAGGSLRLSCAASGSTLPYYAMGWYRQAHGKERQMVAAITTSGGDTYSADSVKGRFTISRDNAKNTVYLQMNSLKPEDTAVYYCAISYSARSTVRKLFYFAYDYWGQGTQVTVSS”, the “polyreactivity (PSR sort gate)” value was “low polyreactivity”.
In the case of “QVQLVESGVGLVQAGGSLRLSCAASGTTFSQYAMGGYRQAPGKERELVAAIDWSGGSTYYADSVKGRFTISRDNAKNTVYLQMNSLKPVDTAVYYCNTLRFRSFYLYGYWGQGTQVTVSS”, the “polyreactivity (PSR sort gate)” value is reported as “high polyreactivity”.
With “QVQLVESGVGLVQAGGSLRLSCAATGFTFYWYTMGWYIQAPGKERELVAAISASGGRTYYADSVKGRFTISRDNAKNTVYLQMNSLKPEDTAVYYCAARFRTWGNREAGYYWGQGTQVTVSS” the “polyreactivity (PSR sort gate)” value was “high polyreactivity”.
For “QVQLVESGVGLVQAGGSLRLSCAATGSILSINGMGWYIPAPGKERELVATIDGSDGSTFYADSVKGRFTISRDNAKNTVFLQMNSLNPEDTEVYYCADENFWQTKEYDYWGQGTQVTVSS”, the “polyreactivity (PSR sort gate)” value was “low polyreactivity”.
With “QVQLVESGVGLVQAGGSLRLSCASSGFIFDTYAMGLYRQAPGKERELVAVISSGGSTYYADSVKGRFTISRDNAKNTVYLQMNSLKPEDTAVYYCAADSGYLGIYGDEYSWGQGTQVTVSS” the “polyreactivity (PSR sort gate)” value was “low polyreactivity”.
With “QVQLVESGVGLVQAGRSLRLSCAASGFTFGAYAMGWYRQAPGKERELVAAITRRGGSTYYADSVKGRFTISRDNAKNTVYLQMNSLKPEDTAVYYCAARRGRVLTKVSGYYSWGQGTQVTVSS” the “polyreactivity (PSR sort gate)” value was “high polyreactivity”.
For “QVQLVESGVGLVQAGRSLRLSCAATGIIFRDNARGSNRQAPGKERELVAANSKSGGRTYYADSVKGRFTISRDNAKNTVYLQMNSLKPDDTAVYYCAKASRYWSLYYWGQGTQVTVSS”, the “polyreactivity (PSR sort gate)” value was “high polyreactivity”.
With “QVQLVESGVGLVQARGSLPLSCAASGFIFNTMGWYRQAPGKERELVATISWSDGSTYYADSVKGRFTISRDNAKNTVYLQMNTLKPEDTAVYYCAATTDALVGRPRYDYWGQGTQVTVSS” the “polyreactivity (PSR sort gate)” value was “low polyreactivity”.
In the case of “QVQLVESGVGLVQAVVSLRISCAASGSNFNYYAMGWYRQAPGKERELVAAISGSGATTYYADSVKGRFTISRDNAKNTVYLQMNSLKPEDTAVYYCATTRRWYIGYDYWGQGTQVTVSS”, the “polyreactivity (PSR sort gate)” value is reported as “high polyreactivity”.
In the case of “QVQLVESGVGLVQGGGSLRLTCAASGYTFPRYTKGWYRQPPGKERELVASINWSGGSTYYADSVKGRFTISRDNAKNNVYLQMNCLKPDDTAVYFCNKAYVSRYDYWGQGSQVTVSS”, the “polyreactivity (PSR sort gate)” value is reported as “high polyreactivity”.
With “QVQLVESLGGLVQAGGSLRLSCAASGITFGWYAMGWYRQAPGQERELVAAISPAGSTYYADSVKGRFTISRDNAKNTVYLQMNSLKPEDTAVYYWRYSAFRFSAMGYWGHGTQVTVSS” the “polyreactivity (PSR sort gate)” value was “high polyreactivity”.
In the case of “QVQLVESLVGLDQAGGSLRLSCSASGFTIPRYAMGWSRQAHGKESELVAAITSGGSTYYADSVKGRFTISRDNAKNNVYLQMNSLKTEVTAVYFCAADGLCGSRFYSWGLGTQVTVSS”, the “polyreactivity (PSR sort gate)” value is reported as “high polyreactivity”.
For “QVQLVESRGALVQAGGSLRLSCAASGSTIDAYAMGWYRQAPGKERELVAAITRSGGRTYYADSVKGRFTISRDYAKNTVFLQMNSLKPVDTAVFYCNAYCVYVRGEFWGQGTQVTVSS”, the “polyreactivity (PSR sort gate)” value was “high polyreactivity”.
In the case of “QVQLVESRGALVQAGRSLRLRCAASGLIFYLYAMGWYRQAPGKARELVAAINYSGGRTYYADSVKGRFTISRDNAKNTVYLQMNSLKPEDTAVYYCAAKSAGFQYNYWGHGTQVTVSS”, the “polyreactivity (PSR sort gate)” value is reported as “high polyreactivity”.
In the case of “QVQLVESRGGLDQAGGSLRLSCAASGSTFYMYAMGWYRQAPGKERELVASITSGDGSTYYADSVKGRFTISRDNAKNTVYLQMNSLKPEDTAVYYCNAVLEGWFYQYDYWGQGTQVTVSS”, the “polyreactivity (PSR sort gate)” value is reported as “low polyreactivity”.
In the case of “QVQLVESRGGLFQAGGSLRLSCAASGFIFRDNAMGWYRQAPGKERELVAAISKSGGRTYYADSVKGRFTISRDNAKNTVYLQMNSLKPEDTAVYYCAKVRYQGNGGYYWGQGTQVTVSS”, the “polyreactivity (PSR sort gate)” value is reported as “high polyreactivity”.
With “QVQLVESRGGLVQAGGSHRLSCAASGSIIYGNTMGWYRQAPGKERELVAAIRRGGSTNYADSVKGRFTISRDNAKNTVYLQMNSMKPEDTAVYYCAKGHPSDFGYWGQGTQVNVSS” the “polyreactivity (PSR sort gate)” value was “high polyreactivity”.
In the case of “QVQLVESRGGLVQAGGSIRLSCAASGRIFVTYAMGWYRQAPGKERELVAVISWSGGSTYYADSVKGRFTISRDNAKNTVYLQMNSLKPEDTAVYYCARGLRKVRFDFWGQGTQVTVSS”, the “polyreactivity (PSR sort gate)” value is reported as “low polyreactivity”.
With “QVQLVESRGGLVQAGGSLLLRCAASGSTITRNAMGWYRQAPGKERELVAAITSGGGTNYADSVKGRFTISRDNAKNTVYLQMNSLKPEDTAVYYCADRYWRFYTKRGYWGQGTQVTVSS” the “polyreactivity (PSR sort gate)” value was “high polyreactivity”.
With “QVQLVESRGGLVQAGGSLRLICAASGRIFGRNAMGWYRQAPGKERELVAAISKRGGSTSYADSVKGRFTISRDNAKNTVYLQMNSLKPEDTAVYYCATSAPLVTSSGYGYWGQGTQVTVSS” the “polyreactivity (PSR sort gate)” value was “high polyreactivity”.
With “QVQLVESRGGLVQAGGSLRLRCAASGSTFGYYAMGWYRQAPGKERELVAGISSGGTTKYADSVKGRFTISRDNEKNTVYLQMNSLKPEDTAVYYCAATVRVYDYWGQGTQVTLSS” the “polyreactivity (PSR sort gate)” value was “high polyreactivity”.
With “QVQLVESRGGLVQAGGSLRLSCAASGFIFRYYAMGWYRQEPGKDSELVAAISWSGGSTYYADSVKGRFTISRDNAKNTVYLQMNSLKPEDTAVYYCAADRYAILFYAEDYWGQGTQVTVSS” the “polyreactivity (PSR sort gate)” value was “low polyreactivity”.
In the case of “QVQLVESRGGLVQAGGSLRLSCAASGFNFPHYAMGWYRQAPGKERELVAAISKSGDSTYYADSVKARFTISRDNAKNTVYLQMNSLKPEDTAVYYCARRGRSVRWKYDYWGQGTQVTVSS”, the “polyreactivity (PSR sort gate)” value is reported as “low polyreactivity”.
With “QVQLVESRGGLVQAGGSLRLSCAASGFTFGWYAMGWYRQSPGKERELVAAITSGGSTKYADSVKGRFTISRDNAKNTVYLEMNSLKPEETAVYYCAAKRLGQYRPYTYGYWGQGTQVTVSS” the “polyreactivity (PSR sort gate)” value was “high polyreactivity”.
For “QVQLVESRGGLVQAGGSLRLSCAASGFTFQRYAMGWYRQAPGKERELVAAINRSGGNTHYADSVKGRFTISRDNAKNTVYLQMNSLKPDDTAVYYCAVGTPASVGHYTYDYWGQGTQVTVSS”, the “polyreactivity (PSR sort gate)” value was “high polyreactivity”.
With “QVQLVESRGGLVQAGGSLRLSCAASGFTFVYYTMGWYRQAPGKERELVAAINWSGGSTYYADSVKGRFTISRDNAKNTVYLQMNSLKPEDTAVYYCAADTSYYPYEYWGQGTQVTVSS” the “polyreactivity (PSR sort gate)” value was “high polyreactivity”.
In the case of “QVQLVESRGGLVQAGGSLRLSCAASGGIFINYAMGWYRQAPGKERELVAAISRRGGSTYYADSVKGRFTISRDNAKNTVYLQMNSLKPEDTAVYYCNAVYLRGGMDYWGQGTQVTVSS”, the “polyreactivity (PSR sort gate)” value is reported as “high polyreactivity”.
In the case of “QVQLVESRGGLVQAGGSLRLSCAASGIIFSKNAMGWYRQAPGKERELVATINRSGGSTYADSVKGRFTISRDNAKNTVYLQMNSLKPEDTAVYYCAKRASPFWRGYDSCGQGTQVTVSS”, the “polyreactivity (PSR sort gate)” value is reported as “high polyreactivity”.
With “QVQLVESRGGLVQAGGSLRLSCAASGIIFYQYAMGWYRQAPGKERELVAAITRSGGSTYFADSVKGRFTISRDNAKNTVYLQMKSLKPEDTAVYYCAARPFHSGYEGYGYWGQGTQVTVSS” the “polyreactivity (PSR sort gate)” value was “high polyreactivity”.
With “QVQLVESRGGLVQAGGSLRLSCAASGLTFKWYAMGWYRQAHGKERELVAAISRDGSTYYADSVKGRFTISRDNAKNTVYLQMNSLKPEDTAVYYCAAEPRSRRVLYDYWGQGTQVTVSS” the “polyreactivity (PSR sort gate)” value was “high polyreactivity”.
For “QVQLVESRGGLVQAGGSLRLSCAASGNTFRIYTMGWYRQAPGKDRELVATITRRGGYTYYADSVKGRFTISRDNAKNTVYLQMNSLKPEDTAVYYCNALPRPSYTFDYWGQGTQVTVSS”, the “polyreactivity (PSR sort gate)” value was “high polyreactivity”.
In the case of “QVQLVESRGGLVQAGGSLRLSCAASGRINSRYAMGLSRQEPGKERELVAAISWNGGSTYYADSVKGRFTISRDNAMNTVYFQMNSLKPEDTAVYYCAAYRPGPYAAYGYWGQGTQVTVSS”, the “polyreactivity (PSR sort gate)” value is reported as “high polyreactivity”.
With “QVQLVESRGGLVQAGGSLRLSCAASGRNFKANTMGWYRQAPGKERVVVAAITASGGTTYYADSVKGRFTISRDNAKNTVYLQMTSLKPEDTAVYYCAAAVWYRGWYRYEYWGQGSQVTVSS” the “polyreactivity (PSR sort gate)” value was “low polyreactivity”.
In the case of “QVQLVESRGGLVQAGGSLRLSCAASGRTFWYYAMGWYRQAPGKEMELVATITGSGGTTYYADSVKGRFTISRDNAKNTVYLQMNSLKREDTAVYYCAKEQHWYIYGPAEVDYWGQGTQVTVSS”, the “polyreactivity (PSR sort gate)” value is reported as “high polyreactivity”.
